B1: Ab 2-7 scFv (scFv, V domains shown)
VH: QVTLKESGPTRVKPTQTLTLTCTFSGFSLSTTGVGVGWIRQPPGKALEWLALIYWNDDKRYSPSLKSRLTITKDTSKNQVVLTMTNMDPVDTATYYCARISGSGYFYPFDIWGQGTTVTVSS
VL: NFMLTQPHSVSESPGKTVTISCTRSSGSIASNYVQWYQQRPGSSPTTVIYEDNQRPSGVPDRFSGSIDSSSNSASLTISGLKAEDEADYYCQSYDSSSLWVFGGGTKLTVL
B2: Ab 2-7 scFv-Fc (Fc fusion)
VH: B1 VH
VL: B1 VL

Assays:
[1] = biological target: SARS-CoV-2 receptor binding domain (RBD), biotinylated (SARS-CoV-2, Wuhan-type, UniProt P0DTC2, biotin (BirA, on the Avi tag)); experiment: BLI; conditions: both partners purified
[2] = biological target: T1, Tor2 SARS-CoV spike (Toronto, 2003) (SARS-CoV, strain Tor2); experiment: ELISA; antibody at 2 ug/ml against Tor2 SARS-CoV spike
T1 construct: also called Tor2 spike protein

| Binder | Kd [1] [nM] | koff [1] [s⁻¹] | kon [1] [M⁻¹ s⁻¹] | binding result [2] |
| --- | --- | --- | --- | --- |
| B1 | 0.107 | 4.81e-05 | 452000 |  |
| B2 |  |  |  | binds |
